{"source": "patent US20190375786A1", "about": "“STABLE PEPTIDES AND METHODS OF USE THEREOF” (Fred Hutchinson Cancer Research Center, priority 2016, published 2019)", "molecules": {"B1": {"name": "HuScn: Human siderocalin, reference protein in the SYPRO Orange melting assay (protein, UniProt P80188 21-198, looked up)", "Neutrophil …": "QDSTSDLIPAPPLSKVPLQQNFQDNQFQGKWYVVGLAGNAILREDKDPQKMYATIYELKEDKSYNVTSVLFRKKKCDYWIRTFVPGCQPGEFTLGNIKSYPGLTSYLVRVVSTNYNQHAMVFFKKVSQNREYFKITLYGRTKELTSELKENFIRFSKSLGLPENHIVFPVPIDQCIDG"}}, "key": {"[1]": {"assay": "Combined resistance grouping of hitchin peptides (FIG. 27, from Table 2 data)", "format": "physicochemical", "settings": "FIG. 27 grouping of hitchin peptides", "method": "As shown by the data in TABLE 2, the tested peptides of the present disclosure show a range of resistance to proteases, reduction, and high temperature. The peptides were classified as high, medium, or low for each condition. […] For example, after a peptide is treated at 100° C., if the HPLC peak of the peptide is mostly absent as compared to HPLC peak of the peptide not treated at 100° C., then the peptide is classified as low or having low resistance to 100° C. After a peptide is treated with reducing conditions, if there is no or very minimal HPLC peak that overlaps with the HPLC peak of the peptide not treated with reducing conditions, then the peptide is classified as low or having low resistance to reducing conditions.\nThe peptides with the highest resistance data were further analyzed. […] The six peptides that were further tested were peptides comprising the sequences of SEQ ID NO: 27, SEQ ID NO: 24, SEQ ID NO: 6, SEQ ID NO: 10, SEQ ID NO: 12, and SEQ ID NO: 57, which were all hitchins. […] FIG. 27C is a sequence analysis of SEQ ID NO: 27, SEQ ID NO: 24, SEQ ID NO: 6, SEQ ID NO: 10, SEQ ID NO: 12, and SEQ ID NO: 57 from FIG. 27B. FIG. 27C identifies which amino acids are present at each position in SEQ ID NO: 27, SEQ ID NO: 24, SEQ ID NO: 6, SEQ ID NO: 10, SEQ ID NO: 12, and SEQ ID NO: 57. For example, at position one, all peptide sequences comprise a G amino acid residue; at position two, all peptide sequences comprise an S amino acid residue; at position three, all peptide sequences comprise either G, Q, or V amino acid, or null; and at position four, all peptide sequences comprise V, R, or K amino acid, or null. […] SEQ ID NO: 167 and SEQ ID NO: 168 describe sequences of peptides that are particularly resistant to reduction, pepsin, 75° C., and 100° C., which would typically degrade peptides. […] Additionally, SEQ ID NO: 169 describes sequences of peptides that are also particularly resistant to trypsin."}, "[2]": {"assay": "Resistance to reduction by DTT, RP-HPLC", "format": "physicochemical", "settings": "10 mM DTT; HPLC vs non-reduced peptide", "in_short": "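Peptide (12.5 μg from a 2 mg/ml stock, or 0.015 mM final in PBS) was held 30 min at room temperature with or without 10 mM DTT. Reduced and non-reduced forms were compared by C-18 RP-HPLC using a 5–45% acetonitrile/0.1% TFA gradient over 10 min, with detection at 214 and 280 nm.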"}, "trypsin": {"target": "trypsin (Sus scrofa, UniProt P00761)", "sequence (P00761 9-231)": "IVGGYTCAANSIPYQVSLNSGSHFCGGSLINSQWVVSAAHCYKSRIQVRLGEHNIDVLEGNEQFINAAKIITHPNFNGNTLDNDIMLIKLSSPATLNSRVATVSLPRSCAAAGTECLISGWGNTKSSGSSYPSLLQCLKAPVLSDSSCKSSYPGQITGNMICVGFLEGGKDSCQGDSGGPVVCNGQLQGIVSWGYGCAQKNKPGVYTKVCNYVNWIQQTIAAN", "assay": "Trypsin digestion resistance of soluble peptide, RP-HPLC", "format": "in vitro ADME, porcine", "parameters": "purchased Sigma Aldrich 6567", "settings": "50 U trypsin (500 U/ml), 30 min at room temperature, with or without 10 mM DTT; HPLC", "in_short": "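12.5 μg soluble peptide digested with 500 U/ml porcine trypsin in PBS, 30 min at 37.5° C; quenched with soybean trypsin inhibitor, with or without 10 mM DTT reduction afterwards. Intact peptide assessed by C-18 RP-HPLC, 5-45% acetonitrile/0.1% TFA gradient over 10 min.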"}, "pepsin": {"target": "pepsin (Sus scrofa, UniProt P00791)", "sequence (P00791 60-385)": "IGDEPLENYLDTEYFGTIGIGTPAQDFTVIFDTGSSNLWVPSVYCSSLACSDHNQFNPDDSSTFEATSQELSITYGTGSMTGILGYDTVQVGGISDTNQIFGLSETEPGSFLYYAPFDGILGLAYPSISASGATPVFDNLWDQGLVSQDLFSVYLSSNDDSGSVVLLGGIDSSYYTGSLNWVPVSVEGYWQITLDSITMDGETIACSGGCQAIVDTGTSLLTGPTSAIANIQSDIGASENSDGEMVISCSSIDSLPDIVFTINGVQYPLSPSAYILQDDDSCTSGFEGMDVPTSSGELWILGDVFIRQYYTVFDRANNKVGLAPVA", "assay": "Pepsin digestion resistance in simulated gastric fluid, RP-HPLC", "format": "in vitro ADME, porcine", "parameters": "purchased Sigma Aldrich P7012", "settings": "500 U pepsin (5000 U/ml) in SGF, 30 min at room temperature, with or without DTT; HPLC", "in_short": "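Peptide (12.5 μg) incubated 30 min at 37.5 °C with or without 500 U/ml pepsin in simulated gastric fluid (pH 1.05; 2% NaCl in 0.7% HCl); some reactions quenched with 100 mM Tris and 10 mM DTT. Intact peptide followed by C-18 RP-HPLC (5–45% acetonitrile/0.1% TFA over 10 min) at 214 and 280 nm.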"}, "[3]": {"assay": "Stability in simulated gastric fluid (SGF, pH 1.05), RP-HPLC", "format": "physicochemical", "settings": "HPLC vs non-reduced peptide", "method": "Peptides were first suspended in 500 ul of ddH2O to a stock concentration of 2 mg/ml. Reactions were prepared by adding 12.5 ug of peptide from the stock solution to a 10 mM solution of DTT in PBS and allowed to incubate at room temperature for 30 minutes. Other reactions were prepared with 12.5 μg peptide with or without 500 U/ml pepsin in simulated gastric fluid (SGF; pH 1.05; […] sodium chloride in 0.7% (v/v) hydrochloric acid) and were incubated for 30 minutes at 37.5° C. Some reactions were quenched with a final concentration of 100 mM Tris base and 10 mM dithiothreitol (DTT). Some reactions were performed in all of the above components, including simulated gastric fluid, pepsin, Tris, and DTT (referred to as SPTD). Reversed phase HPLC (RP-HPLC) was run on samples using an Agilent 1260 HPLC equipped with a C-18 Poroshell 120B column. Sample were analyzed by a gradient method with a mobile phase of Solvent A (water with 0.1% TFA) and Solvent B (acetonitrile with 0.1% TFA). Solvent B was ramped up from 5%-45% of the mobile phase over a period of 10 minutes. Peptides were detected at an absorbance of 214 nm and 280 nm.\nThis example illustrates peptide stability in biological conditions including in the presence of reducing agents, proteases, oxidative conditions, acidic conditions, and simulated gastric fluids. […] Various peptides were suspended in 500 μl of ddH2O at a stock concentration of 2 mg/ml. This was then diluted in accord with the reaction conditions to prevent adverse buffering effects. Reactions were prepared with 12.5 μg peptide dissolved in solution and, in some samples, additionally suspended in a 10 mM solution of DTT, simulated gastric fluid (pH 1.05; […] sodium chloride in 0.7% (v/v) hydrochloric acid), 500 U pepsin (5000 U/ml pepsin), 50 U trypsin (500 U/ml trypsin) with 1 mg/ml inhibitor in PBS, or a combination of any of these conditions. All protease reactions were incubated for 30 min at room temperature and then quenched. Pepsin reactions were quenched by adding Tris base to a final concentration of 0.075 M. Trypsin reactions were quenched by adding excess soybean trypsin inhibitor. RP-HPLC was then run on samples using an Agilent 1260 HPLC equipped with a C-18 Poroshell 120B column. Sample were analyzed by a gradient method with a mobile phase of Solvent A (water with 0.1% TFA) and Solvent B (acetonitrile with 0.1% TFA). Solvent B was ramped up from 5%-45% of the mobile phase over a period of 10 minutes."}, "[4]": {"assay": "Intravenous and oral administration of 14C-radiolabeled peptide to mice; plasma, urine, feces by liquid scintillation counting and HPLC", "format": "in vivo, female Harlan athymic nude mice", "settings": "mouse", "method": "This example describes oral and intravenous administration of peptides of this disclosure. […] A peptide of SEQ ID NO: 27 was radiolabeled by the methods described in EXAMPLE 4, and was then administered intravenously or orally to female Harlan athymic nude mice, 6-8 weeks of age. Radiolabeled peptides of SEQ ID NO: 27 (SEQ ID NO: 27-r) was administered intravenously (IV) at a dose of 4.8 μCi/20 nmol. SEQ ID NO: 27-r was administered orally (PO) by oral gavage at a dose of 24 μCi/100 nmol. Mice were euthanized at various time points by CO2 asphyxiation and biological fluids were collected, including blood, urine, and feces. Samples were analyzed by RP-HPLC and liquid scintillation counting to quantify the concentration or dose of radioactivity and/or intact peptide recovered in plasma, urine, and feces. Urine was collected by abdominal palpitation immediately before CO2 asphyxiation. Blood was collected by cardiac puncture immediately after CO2 asphyxiation and centrifuged to separate plasma. Feces were collected either before or after CO2 asphyxiation by palpitation of the colon. Samples were analyzed by HPLC to quantify the concentration or dose of intact peptide recovered in plasma, urine, and feces. For HPLC analysis, urine samples were first diluted at a 1:20 ratio in water and plasma samples were diluted at a 1:5 ratio in water. Feces samples were dissolved in Tris buffer, centrifuged to remove the insoluble fraction, and supernatants were diluted at a 1:1 ratio in water."}, "[5]": {"assay": "Resistance to reduction by reduced glutathione (GSH), HPLC", "format": "physicochemical", "settings": "10 mM reduced glutathione (GSH); HPLC vs non-reduced peptide", "method": "This example describes stability of designed or engineered peptides under reducing conditions. Peptides that are designed or engineered to interact with one or more target proteins in the cell, such as proteins in the nucleus, are exposed to reducing conditions in the cytosolic compartment of cells. Thus, it is advantageous for peptides of this disclosure to display stability in reducing conditions. Stability of peptides of this disclosure was tested in 10 mM DTT and 10 mM GSH. GSH is a more physiologically relevant reducing agent for testing peptide stability in intracellular conditions. An example of a peptide-target protein interaction is a peptide binding to a TEAD protein."}, "[6]": {"assay": "SYPRO Orange melting assay", "format": "physicochemical", "settings": "heating from 20° C. to 95° C.", "method": "Protein secondary structures were assessed using Circular Dichrosim (CD). CD spectra were measured with a Jasco J-720W spectropolarimeter using a 1.0 mm path length cell. Protein samples in 10 mM phosphate buffer (pH=7.4) were at 25-30 μM protein concentration. Samples were analyzed at wavelength ranges of […]. Data were expressed in terms of relative ellipticity [θ]; (mdeg). To determine thermal stability of proteins, samples were subjected to incremental increase in temperature at a ramp of 2° C./min from 20° C. to 95° C. Stability and protein unfolding were monitored at 220 and 215 for α-helix and β-sheet secondary structures, respectively. Data are expressed in terms of relative ellipticity [θ], reported in mdeg. For SEQ ID NO: 43 and its point mutant variants, no changes to the α-helix-dominated structure were observed upon heating up to 95° C. […] Additionally, protein melting temperature (Tm) determination was performed by monitoring protein unfolding using SYPRO Orange dye (Molecular Probes). In brief, 0.1 mg/mL protein sample in 20 μL total volume PBS buffer were mixed with 24, of 10× SYPRO Orange dye. Dye intercalation into the hydrophobic protein core following protein unfolding was assayed using the C1000 Touch Thermal Cycler with CFX96 Deep Well Real-Time System (BioRad). Samples were heated from 20° C. to 95° C. with stepwise increments of 0.5° C. per minute and a 5 sec hold step for every point, followed by fluorescence reading. Tm were calculated by analyzing the derivatives of Relative florescence Units (RFU). FIG. 17D illustrates this SYPRO Orange melting assay of Peptides."}}, "note": "No end group written: not given here."}
{"molecule": "GSNFKVEGACSKPCRKYCIDKGARNGKCINGRCHCYY [SEQ ID NO: 5]", "values": [{"measurement": "combined resistance to reduction, pepsin and elevated temperatures such as 75° C. and 100° C.", "setting": "[1]", "result": "not highly resistant"}, {"measurement": "resistance to reduction by DTT (in words)", "setting": "[2]", "result": "resistant"}]}
{"molecule": "GSGVPINVRSRGSRDSLDPSRRAGMRFGRSINSRSHSTP [SEQ ID NO: 177, reference compound]", "values": [{"measurement": "resistance to trypsin, Example 7 conditions (in words)", "setting": "trypsin", "result": "degraded"}, {"measurement": "resistance to pepsin, Example 7 conditions (in words)", "setting": "pepsin", "result": "degraded"}, {"measurement": "stability in simulated gastric fluid / low pH (in words)", "setting": "[3]", "result": "stable"}]}
{"molecule": "SEQ ID NO: 27-r: radiolabeled peptide of SEQ ID NO: 27, by reductive methylation with 14C formaldehyde (GSGVPINVKCRGSRDCLDPCKKAGMRFGKCINSKCHCTP; cysteine pairing not given here; also: radiolabeled by reductive methylation with 14C formaldehyde (sites not given here))", "values": [{"measurement": "radioactivity in urine", "setting": "[4]; IV 20 nmol and PO 100 nmol", "result": "some radioactivity from the administered peptide was detected"}, {"measurement": "time up to which radioactive signal from the dosed peptide was present in plasma", "setting": "[4]; IV 20 nmol and PO 100 nmol", "result": "at least 50 hours"}, {"measurement": "plasma radioactivity as percent of the administered dose", "setting": "[4]; IV, 20 nmol (4.8 μCi 14C)", "result": "~10", "unit": "%"}, {"measurement": "nature of radioactively detected peptide in plasma (intact vs fragments)", "setting": "[4]; PO 100 nmol, tandem HPLC and liquid scintillation counting", "result": "nearly all of the radioactively detected peptide in plasma was due to fragments"}, {"measurement": "intact peptide in feces", "setting": "[4]; PO 100 nmol, tandem HPLC and liquid scintillation counting, 3 and 8 hours", "result": "detected"}, {"measurement": "plasma radioactivity as percent of the administered dose", "setting": "[4]; PO by gavage, 100 nmol (24 μCi 14C)", "result": "~1", "unit": "%"}]}
{"molecule": "PDEYIERAKECCKKGDIQCCLRYFEESGDPNVMLICLFCP [SEQ ID NO: 122]", "values": [{"measurement": "resistance to GSH reducing conditions", "setting": "[5]", "result": "resistant"}]}
{"molecule": "B1", "values": [{"measurement": "melting temperature (Tm)", "setting": "[6]", "result": 79, "unit": "°C"}]}
